The record followed here is paper PMC11974885 (bioRxiv, 2025).

The experiment concerns the target T1, DbfS sensory domain, DbfS^SD-6xHis (Vibrio cholerae, UniProt Q9KRK1 43-171).
T1 sequence: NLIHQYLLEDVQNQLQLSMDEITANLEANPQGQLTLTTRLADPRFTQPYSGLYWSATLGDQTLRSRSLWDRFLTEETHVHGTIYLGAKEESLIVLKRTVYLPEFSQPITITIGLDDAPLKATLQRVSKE
The experiment is described as follows: MST.

B1: DbfQ (processed, 6xHis tag-cleaved) (natural protein)
chain: DNKVRDWEQGSYREGTQIEIDEDQDDVYRAVQKGLIRPFAELYATVDQQLNGRLIKVELDEDDDEWIYELKLVYDNQVFRVEYNAATLELMSIRGRNVIRAIKK
modifications: Red-NHS dye, amine-reactive, covalent (in the MST experiments only)
For the molecule B1, binding was characterised by a dissociation constant (Kd) of 30 nM. That is a double-digit nanomolar value.
